Reference: the nanobody polyreactivity screen of Harvey et al. (2022)

Assay: yeast display, Sf9 membrane polyspecificity reagent, FACS + sequencing; frameworks hold sequencing errors
Method in brief: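 After 36–48 hours of galactose induction, yeast (Saccharomyces cerevisiae BJ5465) displaying a synthetic nanobody library were stained at 4 °C for 1 hour with 10% biotinylated, detergent-solubilized Sf9 membrane reagent. Streptavidin microbeads enriched the stained cells before FACS sorting into low and high (top ~1%) gates on anti-HA and streptavidin fluorescence. Each clone's polyreactivity label reflects its gate of origin.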

QVQLVETGGGLVQAGGSLRLSCAASGSIFIYFAMGWYRQAPGKERELVAAIDRSGGNTYYADSVKGRFTLSRDYAKNTVYLQMNSLKPEDTAVYYCAALVHRRVQYDYWGQGTQVTVSS
polyreactivity (PSR sort gate): high polyreactivity

QVQLVESGGGLVQAGGSLRLICAASGFTFWDYTMGWYIQAPGKERELVAAITRSGGRTYYADSVKGRFTISRDNENNTFYLQMNSLKTEDTAVYYCAAKIWSKDEKHDYWGQGTQVTVSS
polyreactivity (PSR sort gate): high polyreactivity

QVQLVESGGGLVQAGGSLRLSCAASGITFTRNAMGWYRQAPGKERELVATISGSGGGTYYADSVKGRFTISRDNAKNTVYLQMNSLKPEDTAVYYCNARRWYYWQGTARYDYWGQGTQVTVSS
polyreactivity (PSR sort gate): low polyreactivity

QVQLVESGGGLVQAGGSLRLICAASGRTFFYYAMGWYRQAPGKEREFVAAISWSAGSTYYADSVKGRFTISRDNAKITVSLQMNSLKPKDTGVYYCAAARPSGGGFDYWGQGTQVTVSS
polyreactivity (PSR sort gate): high polyreactivity

QVHIVESGGGLDQAGGSLRLSCAASGSIFYRNAMGWYRQAPGKEREMVAAISSDGSTNYADSVKGRFTISRDNAKNTVYLQMNSLKQEDTAVYFCAAQWTQILDYWGQGTQVNVSS
polyreactivity (PSR sort gate): low polyreactivity

QVQLVESGGGLVQAGGSLRLTCAASGRILDRYVMGWYRQAPGKERELVAAISQSGRGTYYADSVKGRFTISRDNAKNTVYLQMNSLKPEVTAVYYCAARGTGYHGYGYWGQGSQVTVSS
polyreactivity (PSR sort gate): high polyreactivity

QVQLVESGGGLVQAGGSLRLSCAASGSTFRRNAMGWYRQAPGKERELVAAISRSGGSTYYADSEKGRFTISRDNAKNTVYLQMNSLKPEDTVVYYCAADAARTSHWSGDYWGQGTQVTVSS
polyreactivity (PSR sort gate): high polyreactivity

QVQLVESGGGLVQAGGSLRLICAASGSTLKYYAMGWYRQAPGKERELVARITRSSGSTYYADSVKGRFTISRDNAKNTVYLQMNSLKPEDTAVYYCNAYGRFGLYDYWGQGTQVTVSS
polyreactivity (PSR sort gate): high polyreactivity

QVQLVESGGGLVQAGGSLRLSCAASGRIFRAYVMGWYRQAPGKEREYVAAITRSGGSTYYADSVKGRFTISRDNAKNTVYLQMNSLKPEDTAVYYCAAPVYLYGTVGRGDYWGQGTQVTVSS
polyreactivity (PSR sort gate): high polyreactivity

QVQLVESGGGLVQAGGSLRLSCADSGFIFTVNAMGWYRQAPGKERELVAAITSGGNTYYADSVKGRFTISRDNAKNTVYLQMNSLKPEDAAVYYCNAVFYTWSPYGTTVRSYGYWGQGTQVTVSS
polyreactivity (PSR sort gate): high polyreactivity

QVQLVESGGGLVQAGGSLRLSCASSGFTLGYYTMGWYRQAPGKESELVAAIRSNGGSTYYADSVKGRFTISRDNAKNTVYLQMNSLKPEDTAVYYCAARRWRYVGTRYDYWGQGTQVTVSS
polyreactivity (PSR sort gate): high polyreactivity

QVQLVESGGGLVQAGGSLRLSCAASGITFAGYAMRWYRQAPGKERELVASMTWGGGRTYYADSVKRRFTISRDNAKNTVYLQMNSLKPEDTAVYYCATRRRPQYNKYDYWGQGTQVTVSS
polyreactivity (PSR sort gate): high polyreactivity

QVQLVESGGGLVQAGRSLRLSCAASGSTFYGYAMGWYRQPPGKERELVAAITSSGGSTYYADSVKGRFTISRDNAKITVYVQLNSLKPEDTAVYYCNAKRAPWGTLYNYWGQGTQVTVSS
polyreactivity (PSR sort gate): high polyreactivity

QVQLVESGGGLVQAGGSLRLSCADSGLTFGRNAMGWYRHAPGKERELVAAITFNGGSTYYADSVKGRFTISRDNAKNTVYLQMNSLKPEDTAVYYCSGRLWRRSRFDYWGQGTQVTVSS
polyreactivity (PSR sort gate): high polyreactivity

QVQLVESGGGLVQAGGSLRLSGAASGGTFDYYAMGRYRQAPGKERELVAAISTSGGRTYYADSVKGRFTISRDNAKYTVYLQMNSLKPEDTAVYYCAALSPRAKYASFYYWGQGTQVTVSS
polyreactivity (PSR sort gate): high polyreactivity

QVLLQESGGGLVQAGGSLRLSCAASGTISTDIRMGWYRLAPGKEREFVASIDGCSTTYYADSVKGRFTISRDNAKNTVYLQMNSLKPEDTAMYYCSAREATEFYLFYWGQGTQVTVSS
polyreactivity (PSR sort gate): low polyreactivity

QVQLVESGGGLVQAGGSLRLSCAASGFTFPRNTMGWYRQAPGKERELVAVISRSGGRSYYADSVKGRFTISRDNAKNTVYLQMNSLKPEDTAVYYCAADTSVRFDYWGQGTQVTVSS
polyreactivity (PSR sort gate): high polyreactivity

QVQLVESGGGLVQAGGSLRLSCAASGSTFVFYAMGWSREAPGKERELVAAITISGDITYYADSVKGRFTISRDNAKNTVYLQMNSLKPEDTAVYYWAVDGPIPDLHEYWGQGTQVTVSS
polyreactivity (PSR sort gate): low polyreactivity

QVQLVESGVGLVQAGGSLRLSCAASGITFGRNTMGWYRQAPGKERELVAAIDSGGNTYADSVKGRFTISRDNAKNTVYLQMNSLRSEDTAVYYCNARETHQSRYGYWGQGTQVTVSS
polyreactivity (PSR sort gate): low polyreactivity

QVQLVESAGGLVQAGGSLRLICAASGFTSNVYTMGWYRQAPGKERELVAAITSGGSTNYADSVKGRFTISRDNAKNTVYLQMNSLKPEDTAVYYCNTDVKEYFHHEGYPLRWEYDYWGQGTQVTVSS
polyreactivity (PSR sort gate): low polyreactivity

QVQLEESGGGLVQAGGSLRLSCAASGNIFFVYDMGWYRQAPGKERELVAAISWSGGSTYADSVKGRFTISRDNAKNTVYLQMNSLKPEDTAVYYCAAARYAYKHAFEYWGQGTQVTVSS
polyreactivity (PSR sort gate): low polyreactivity

QVQLVESGGALVHAGGSLRLSCAASGSILKTYAMGWYIQAPGKEREFVAAMSSGGSTYYADSVKGRFTISRDNAKNTVYLQMNSLKPEDTAVYYCAADPWGDFVSFASYYYWGQGTQVTVSS
polyreactivity (PSR sort gate): low polyreactivity

QVQLVESGGGLVQAGGSLRLSCAASGSIFRSYAMGWYRQSPGKERELVASISRRGGSTYYADSVKGRFTISRDNAKNTVYLQMNSLKPEDTAVYYCAAVRYNSRVSTTPSDMYYWGQGTQVTVSS
polyreactivity (PSR sort gate): low polyreactivity

QVQLVESGGGLVQAGGSLRLSCAASGNTFYPYAMGWYRQAPGKERELVAAISFSSGSTYYADSVKGRFTISRDNAKNTVYLQMNSLKPEETAVYYCAAEANGNFAWWEYYYWGQGTQVTVSS
polyreactivity (PSR sort gate): high polyreactivity

QVQLVESGGGLVQAGGSLRLSSASSGSIFTDNGMGCYRHAPGKESELVAAISWRGGTYYADSVKGRFTISRDNAKNTVYLQMNSLKPEDSAVYYSAADVLRISTRLFRGPGFDSWGQGTQVTVSS
polyreactivity (PSR sort gate): low polyreactivity

QVQLVESGGGLGQAGGSLRLSCAASGRTLGAYAMGWYRQAPGKERELVAAISGSGGSTYYADSVKGRFTISRDNAKNTVYLQMNSLKPEDTAVYYCAAVLSRYGQSISMYYWGQGTQVTVSS
polyreactivity (PSR sort gate): high polyreactivity

QVQLVESGGGLVQAGGSLRLSCAASGRTIPNYAMGWTRQAPGKERELVAAISSSGDRTYYADSVKGRFTISRDNAKNTVYLQMNSLKPEDTAVYYCAADRGARGDYWGQGTQVTVSS
polyreactivity (PSR sort gate): high polyreactivity

QVQLVESGGGLVQAGGSLRLSCAASGRIFKYYGMGWYRQAPGKESELVAAITRGDSTNYADSVKGRFTISRDNAKNTVYLQMNSLKPEDTAVYYCNVGTRRGYDYWGQGTQVTVSS
polyreactivity (PSR sort gate): high polyreactivity

QVQLVESGGGLVQAGGSLRLSCAASGNTFYGYAMGWYRQAPGKERELVASITLSGDSTYYADSVKGRFTISRDNAKNTVYLQMNSLKPEDTAVYDCAGVYTYPLGYYHYTYDYWGQGTQVTVSS
polyreactivity (PSR sort gate): low polyreactivity

QVQLVESGGGLVQAGGSLRLSCAASGLTFQYNAMGWYRQAPGKERELVAAISWSGGSTYYADSVKGRFTISRDNAKNTVYLQMNSLNPEDTAVYYCAAVYLHKSYARRMDYWGQGTQVTVSS
polyreactivity (PSR sort gate): low polyreactivity

QVQLVESGGGLVQAGGSLRLSCAASGRTCGRYAMVLYRQAPGKERELVAAISYSGGSTYYADSVKGRFTISRDNAKNTVYLQMNSLKPEDTAVYYCARYSIFRWTRDEYWGQGTQVTVSS
polyreactivity (PSR sort gate): high polyreactivity

QVQLVESGGGLVQAGGSLRLSCAASGSIFPYYTMGWYRQAPGKERELVAGISSGGSTNYADSVKGRFTISRDNAKNTVYLQMNSLKPEDTAVYYCNARRYWLRYDYWGQGTQVTVSS
polyreactivity (PSR sort gate): low polyreactivity

QVQLVESGGGLVQAGGSLRLSCAASGRIYSSYAMGRYRQAPGKERELVAAISYSGDRTYYADSVKGRFTISRDNAKNTVYLQMNSLKPEDTAVYYCAARRVTRTTVYRYQYYYWGQGTQVTVSS
polyreactivity (PSR sort gate): high polyreactivity

QDQLVESGGCLVQAGGSLRLRCAASGRTFEAYAKGGYRQAPGKERELVASISSGGSTYYADSVNGRFTISRDNAKNTVYLQMNSLKPEDTAVYYCAAKRATRYYFAYYRARSERMNYWGQGTQVTVSS
polyreactivity (PSR sort gate): high polyreactivity

QVQLVESGGGLVQAGGSLRLRCAASGSIFRVYAMGWYRQAPGKERELVATITWNGGSTYYADSVKGRFTISRDNAKNTVYLQMNSLKPEDTAVFYCAKPSSWRRVLPIDYWGQGTQVTVSS
polyreactivity (PSR sort gate): low polyreactivity

QVQLQESGGGLVQAGGSLRLSCAPSGTITVLYKMGWFRQAPGKEGEFVASINYGTSTYYADSVKGRFTVSRDRAKNTVYLQMNSLKPEDTAVYYCAAAYRWQDVYRYWGQGTQVTVSS
polyreactivity (PSR sort gate): low polyreactivity

QVQLVESGGGLVQAGGSLRLSCAASGRTFVNYAMGWYRQAPGKERELVAAISGGGGTNYADSVKGRFTISRDNAKNTVYLHMNSLKPQDTAVYYCAADTNGYEFDYWGQGTLVTVSS
polyreactivity (PSR sort gate): low polyreactivity

QVQLVESGGGLVQAGGSLRLSCAASGSTLYFYAMGWYRQAPGKERELVASISGTGGRTDYADSVKGRFTISRDNAKNTVYLQMNSLKPEDTAVYYCAARGLVYQSNRYYGYRDYYYWGQGTQVTVSS
polyreactivity (PSR sort gate): high polyreactivity

QVQLVDSGGGLVQAGVSLRLSCAASGFTFVFYAMGWYRQAPGKERELVAAISGRGGSTYYADSVKGRFTISRDNAKNTVYLQMNSLKPEDTAVYYCNALYVYRSVANFDYWGQGTQVTVSS
polyreactivity (PSR sort gate): high polyreactivity

QVQLVETGGGLVQAGGSLRLSCAASGNTFAGNAMGWYRQAPGKERELVAAISRSGVTTRYADSVKGRFTISRDNATNTVYLQMNSLKPEDTAVYYCNADPRLRQNRDYWGQGTQVTVSS
polyreactivity (PSR sort gate): high polyreactivity

QDQLVESGGGLVQAGGSLRLSCAASGITFSSNAMGGYRQAPGKERELVAAISRNGDRTYYADSVKGRFTISRDNAKNTVYLQMNSLKPEVTAVYYCATAYPGSRRDYWGQGTQVTVSS
polyreactivity (PSR sort gate): high polyreactivity

QVQLVESGGGLVQAGGSLRLSCAASGFSFVYYAMGWYRQAPGKERELVATISGNGGRTYYADSVKGRFTISRDNAKNTVYLQMNSLKPEDTAVYYCAALLYIRSVGYDYWGQGTQVTVSS
polyreactivity (PSR sort gate): low polyreactivity

QVQLVESGGGLFQAGGSLRLSSAASGSTFSYYVMGWYRQAPGKERELVAAIDYSGDSTYYADSVKGRFTLSRDNAKNTVYLQMNSLKPEDTAVYYCAADDYPWNRYEYWGQGTQVTVSS
polyreactivity (PSR sort gate): low polyreactivity
